This passage reports stoichiometry N results from PMC6918676.

A word on the stoichiometry N: it is the number of molecules, sites or subunits per partner or assembly.

For the assay, the target named is full length Trk-A with a C-terminal (GGS)5 linker and eYFP or mTurquoise (human) (UniProt P04629). Kind of assay: FRET or BRET. (In BRET a luciferase serves as donor, and the signal depends on an acceptor being close.)

full length Trk-A with a C-terminal (GGS)5 linker and eYFP or mTurquoise, sequence (P04629 33-796): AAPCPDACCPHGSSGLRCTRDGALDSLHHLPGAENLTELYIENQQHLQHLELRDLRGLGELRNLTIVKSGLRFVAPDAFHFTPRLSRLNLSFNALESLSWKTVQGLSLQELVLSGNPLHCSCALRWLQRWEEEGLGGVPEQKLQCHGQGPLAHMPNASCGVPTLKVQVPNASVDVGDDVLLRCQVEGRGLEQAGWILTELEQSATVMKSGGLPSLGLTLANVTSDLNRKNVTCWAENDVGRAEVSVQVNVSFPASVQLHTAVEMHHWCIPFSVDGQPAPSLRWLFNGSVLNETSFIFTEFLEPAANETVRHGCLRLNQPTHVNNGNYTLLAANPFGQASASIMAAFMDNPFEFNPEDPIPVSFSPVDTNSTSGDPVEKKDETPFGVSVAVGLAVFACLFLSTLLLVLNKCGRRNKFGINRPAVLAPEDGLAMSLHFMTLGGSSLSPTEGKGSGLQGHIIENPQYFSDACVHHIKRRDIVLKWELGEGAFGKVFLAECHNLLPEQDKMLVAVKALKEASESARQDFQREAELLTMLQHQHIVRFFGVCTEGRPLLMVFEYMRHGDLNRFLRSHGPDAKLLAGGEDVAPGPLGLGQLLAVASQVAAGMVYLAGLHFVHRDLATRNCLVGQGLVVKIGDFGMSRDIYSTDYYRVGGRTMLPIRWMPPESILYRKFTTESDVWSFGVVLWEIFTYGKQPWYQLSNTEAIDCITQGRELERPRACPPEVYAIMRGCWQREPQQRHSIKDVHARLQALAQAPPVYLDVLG

“full length Trk-A with a C-terminal (GGS)5 linker and eYFP or mTurquoise (from UniProt P04629 33-796) (receptor)” gave a stoichiometry N of 2.
